Read-outs that look alike come from different tables or passages of the source.
B1: Q62F11 (VHH, not shown: small tags and cut ends)
VHH: QVQLVESGGGLVQPGGSLRLSCAASGFSFSDYVMGWFRQAPGKEREFVGFIRWDGLVTRYADAVKGRFTISRDNARNTLSLQTIGLLAEDTAVYYCAASGGGSGPVNAGSYEYWGQGTQVTVSS
notes: Neither Family 1 nor Family 2; purified from E. coli
B2: ID22F (VHH)
chain: EVQLVESGGGLVQPGGSLKLSCAASGFDFSSHWMYWVRQAPGKELEWLSEINTNGLITKYGDSVKGRFTVSRNNAANKMYLELTRLEPEDTALYYCARNQKGLNKGQGTQVTVSSGGGGSGGGGSGGGGSGGGGSGGGGSGGGGSEVQLVESGGGLVQPGGSLKLSCAASGFDFSSHWMYWVRQAPGKELEWLSEINTNGLITKYGDSVKGRFTVSRNNAANKMYLELTRLEPEDTALYYCARNQKGLNKGQGTQVTVSS
B3: Q65B1 (VHH, not shown: small tags and cut ends)
VHH: EVQLVESGGGLVQPGGSLKLSCAASGFDFSSHWMYWVRQAPGKELEWLSEINTNGLITKYGDSVKGRFTVSRNNAANKMYLELTRLEPEDTALYYCARNQKGLNKGQGTQVTVSS
notes: Family 1; purified from E. coli; parent of the ID series
B4: ID15F-EV (VHH)
VHH: EVQLVESGGGLVQPGGSLKLSCAASGFDFSSHWMYWVRQAPGKELEWLSEINTNGLITKYGDSVKGRFTVSRNNAANKMYLELTRLEPEDTALYYCARNQHGLNHGQGTQVTVSS
notes: Q65B1 monomer mutant with His-tag; not shown: C-terminal His-tag (c-myc-6His or Flag-6His)
B5: ID13F-EV (VHH)
VHH: EVQLVESGGGLVQPGGSLKLSCAASGFDFSSHWMYWVRQAPGKELEWLSEINTNGLITKYGDSVKGRFTVSRNNAANKMYLELTRLEPEDTALYYCARNQHGLNKGQGTQVTVSS
notes: as for B4
B6: ID9F-EV (VHH)
VHH: EVQLVESGGGLVQPGGSLKLSCAASGFDFSSHWMYWVRQAPGKELEWLSEINTNGLITKYGDSVHGRFTVSRNNAANKMYLELTRLEPEDTALYYCARNQKGLNKGQGTQVTVSS
notes: as for B4
B7: ID38F (VHH)
VHH: DVQLVESGGGLVQPGGSLKLSCAASGFDFSSHWMYWVRQAPGKELEWLSEINTNGLITHYGDSVKGRFTVSRNNAANKMYLELTRLEPEDTALYYCARNQHGLNKGQGTQVTVSS
notes: Q65B1 with N-terminal DVQLV, K59H and K101H; no His-tag; also called ID38F (S. cerevisiae-produced)
B8: ID8F-EV (VHH, not shown: small tags and cut ends)
VHH: EVQLVESGGGLVQPGGSLKLSCAASGFDFSSHWMYWVRQAPGKELEWLSEINTNGLITHYGDSVKGRFTVSRNNAANKMYLELTRLEPEDTALYYCARNQKGLNKGQGTQVTVSS
B9: ID34F (VHH)
VHH: EVQLVESGGGLVQPGGSLKLSCAASGFDFSSHWMYWVRQAPGKELEWLSEINTNGLITHYGDSVKGRFTVSRNNAANKMYLELTRLEPEDTALYYCARNQHGLNKGQGTQVTVSS
B10: Q62F10 (VHH, not shown: small tags and cut ends)
VHH: EVQLVESGGGLVQPGGSLRLSCVASGFDFNIHWMYWVRQAPGKELEWVAEINTNGLITVYPDSVKGRFTISRDNAKNTLFLQMNNLKFEDTAVYYCTNTQNGKTKGQGTQVTVSS
notes: Family 2; purified from E. coli
B11: Q62E10 (VHH, not shown: small tags and cut ends)
VHH: QVQLVESGGGLVQPGGSLRLSCTTSGLDFGIHWMYWFRQAPGKELEWVAEINTNALITKYADSVKGRFTISRDNAKNTLFLQMNDLKSEDTAVYYCSNTQNGAAKGQGVQVTVSS
notes: as for B10
B12: Q65A3 (VHH, not shown: small tags and cut ends)
VHH: EVQLVESGGGLVQPGGSLRPSCTTSGLDFGIHWMYWFRQAPGKELEWVAEINTNALITKYADSVKGRFTISRDNAKNTLFLQMNDLKSEDTAVYYCSNTQNGAAKGQGVQVTVSS
notes: as for B10
B13: Q65C7 (VHH, not shown: small tags and cut ends)
VHH: EVQLVESGGGLVQPGRSLRLSCTASGFDFSSHWMYWVRQAPGKGLEWVSEINTNGLITKYADFVKGRFTVSRDNAANTLYLEITRLEPEDTALYYCARNQKGLNKGQGTQVTVSS
notes: Family 1; purified from E. coli
B14: Q65D1 (VHH, not shown: small tags and cut ends)
VHH: EVQLVESGGGLVQPGGSLRLSCTASGFDFDNHWMCWVRQAPGKGLEWVSEINTNGLITKYADFVKGRFTVSRDNAANTLYLQITRLKPEDTALYYCARNQKGLNKGQGTQVTVSS
notes: as for B13
B15: Q65D3 (VHH, not shown: small tags and cut ends)
VHH: EVQLVESGGGLVQPGGSLRLSCVASGFDFSSHWMYWVRQAPGKGLEWVSEINTNGLITKYADSTKGRFTVSRDNAANMLNLEMTSLEPEDTALYYCARNERGLNKGQGTQVTVSS
notes: as for B13
B16: Q62F2 (VHH, not shown: small tags and cut ends)
VHH: QVQLVESGGGLVQPGGSLRLSCAASGFDFNSHWMYWVRQAPGKGLEWVSEINTNGLITNYVDSVKGRFTVSRDNAANTLYLEMTSLKPEDTALYYCARNQKGLNKGQGTQVTVSS
notes: as for B13
B17: Q65E12 (VHH, not shown: small tags and cut ends)
VHH: EVQLVESGGGLVQPGGSLRLSCSASGFDFSIHWMYWVRQAPGKELEWVAEINTNGLITLYADSVKGRFTASRDNAKNALFLQMNDLKFEDTAVYYCAKSRNGAAGGQGTQVTVSS
notes: as for B10
B18: Q65F6 (VHH, not shown: small tags and cut ends)
VHH: EVQLVESGGGLVQPGGSLRLSCTASGFDFGIHWMYWVRQAPGKELEWVAEINTNGLITLYSDSVRGRFTASRDNANNALFLQMNDLKFEDTAVYYCAKSRNGAAKGQGTQVTVSS
notes: as for B10

Columns and labels:
soluble human TNF-alpha [1] = molecular target: T1, soluble human TNF-alpha (human, UniProt P01375 77-233); assay: cell-based or functional assay
[2] = molecular target: T2, soluble cynomolgus monkey TNF-alpha (cynomolgus monkey, UniProt P79337 77-233); assay: cell-based or functional assay
[3] = molecular target: T3, non-cleavable transmembrane form of human TNF-alpha on CHO cells (mTNF-alpha-CHO) (human, UniProt P01375 1-233); assay: cell-based or functional assay
soluble human TNF-alpha [4] = molecular target: T1, soluble human TNF-alpha; assay: competition ELISA: VHH mixed with human TNF-alpha, binding to coated etanercept (TNFR2-Fc)
Protocol: (§1) Variable domains were diluted and mixed with either human or cynomolgus monkey TNF-alpha (1.25 ng/ml) to allow binding before adding to the ELISA plates.

[5] = molecular target: T2, soluble cynomolgus monkey TNF-alpha; assay: competition ELISA: VHH mixed with cynomolgus TNF-alpha, binding to coated etanercept (TNFR2-Fc)
Protocol: as §1

soluble human TNF-alpha [6] = molecular target: T1, soluble human TNF-alpha; assay: cell-based or functional assay; remark: listed apart in the source
soluble human TNF-alpha [7] = molecular target: T1, soluble human TNF-alpha; assay: cell-based or functional assay; remark: listed apart in the source
[8] = molecular target: T2, soluble cynomolgus monkey TNF-alpha; assay: cell-based or functional assay; remark: listed apart in the source
[9] = molecular target: T3, non-cleavable transmembrane form of …; assay: cell-based or functional assay; remark: listed apart in the source
[10] = molecular target: T3, non-cleavable transmembrane form of …; assay: cell-based or functional assay; remark: listed apart in the source
soluble human TNF-alpha [11] = molecular target: T1, soluble human TNF-alpha; assay: competition ELISA: VHH mixed with h-TNF-alpha, binding to coated etanercept
soluble human TNF-alpha [12] = molecular target: T1, soluble human TNF-alpha; assay: cell-based or functional assay; remark: listed apart in the source
soluble human TNF-alpha [13] = molecular target: T1, soluble human TNF-alpha; assay: competition ELISA: VHH mixed with TNF-alpha 2.5 ng/ml, binding to coated hTNFR1
Protocol: Plate was washed in PBST using a plate washer and blocked for 1 hour in 200 ul 1% BSA per well. A threefold dilution series beginning at 30 nM for each antibody was incubated with 2.5 ng/ml TNF-alpha for 1 hour, 50 ul/well of which was then added to the washed plate and incubated for 5 hours. The plate was washed and incubated with 50 ul/well of a 1/1000 dilution of biotinylated rabbit alpha-hTNF (Peprotech P31AB7) in 1% BSA and incubated overnight at 4 degrees C. The plate was washed and incubated with 50 ul/well of a 1/1000 dilution of mAvidin HRP in 1% BSA for 1 hour before a final wash and incubation with 100 ul/well TMB substrate. The reaction was stopped after 20 minutes with 50 ul/well 0.5 M H2504 and absorbance was read at 450 nm. EC50 values were calculated from ELISA data in GraphPad Prism.

T3 sequence (P01375 whole entry): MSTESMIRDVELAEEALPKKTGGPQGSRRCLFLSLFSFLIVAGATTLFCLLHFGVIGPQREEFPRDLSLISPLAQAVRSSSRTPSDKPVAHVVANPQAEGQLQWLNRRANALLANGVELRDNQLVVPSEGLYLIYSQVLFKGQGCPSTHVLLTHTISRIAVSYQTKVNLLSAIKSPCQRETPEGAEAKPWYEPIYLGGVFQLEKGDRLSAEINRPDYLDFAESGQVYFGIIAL
T2 sequence (P79337 77-233 limits assumed): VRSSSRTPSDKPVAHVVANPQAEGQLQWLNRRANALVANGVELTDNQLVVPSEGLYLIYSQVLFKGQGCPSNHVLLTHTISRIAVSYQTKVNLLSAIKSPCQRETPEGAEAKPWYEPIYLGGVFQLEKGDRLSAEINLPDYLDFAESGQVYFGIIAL
T1 sequence (P01375 77-233 limits assumed): as the sequence (P79337 77-233 limits assumed) above, with V37L, T44R, N72T, L138R counted along it

| Binder | EC50 (soluble human TNF-alpha [4]) [nM] | EC50 [5] [nM] | Inhibition of human TNF-induced L929 cell cytotoxicity EC50 (soluble human TNF-alpha [7]) [nM] | Inhibition of cynomolgus TNF-induced L929 cell cytotoxicity EC50 [8] [nM] | Inhibition of mTNF-alpha-induced HEK-NF-kB SEAP Reporter (EC50 = nM) [9] [nM] | other results |
| --- | --- | --- | --- | --- | --- | --- |
| B1 | 2.3 | 1.4 | – | – | – | Inhibition of human TNF-induced L929 cell cytotoxicity EC50 (soluble human TNF-alpha [1]): 6 nM; Inhibition of cynomolgus TNF-induced L929 cell cytotoxicity EC50 [2]: 1.5 nM; Inhibition of mTNF-alpha-induced HEK-NF-kB SEAP Reporter (EC50 = nM) [3]: 40 nM |
| B2 | – | – | – | – | – | potency relative to the monomer, soluble TNF-induced HEK293-NF-kB-SEAP reporter assay (soluble human TNF-alpha [6]): ~10 fold |
| B3 | 0.29 | 0.45 | 0.04 | 0.01 | 10.9 | EC50, HEK-293 NF-kB/SEAP reporter cells, human soluble TNF-alpha (soluble human TNF-alpha [6]): ~0.2 nM; mTNF-alpha neutralisation EC50 (nM), NF-kB/SEAP HEK-293 cellular reporter assay [10]: 8.72 nM |
| B4 | – | – | – | – | – | binding result (soluble human TNF-alpha [11]): binds |
| B5 | – | – | – | – | – | binding result (soluble human TNF-alpha [11]): binds |
| B6 | – | – | – | – | – | binding result (soluble human TNF-alpha [11]): binds |
| B7 | – | – | – | – | – | mTNF-alpha neutralisation EC50 (nM), NF-kB/SEAP HEK-293 cellular reporter assay [10]: 5.16 nM; EC50 (nM), neutralisation of human soluble TNF-alpha-induced cytotoxicity in L929 cells (soluble human TNF-alpha [12]): 0.127 nM; EC50 (soluble human TNF-alpha [13]): 0.61 nM |
| B8 | – | – | – | – | – | mTNF-alpha neutralisation EC50 (nM), NF-kB/SEAP HEK-293 cellular reporter assay [10]: 7.69 nM |
| B9 | – | – | – | – | – | mTNF-alpha neutralisation EC50 (nM), NF-kB/SEAP HEK-293 cellular reporter assay [10]: 4.71 nM |
| B10 | 30 | 108 | – | – | – | Inhibition of human TNF-induced L929 cell cytotoxicity EC50 (soluble human TNF-alpha [1]): 2 nM; Inhibition of cynomolgus TNF-induced L929 cell cytotoxicity EC50 [2]: 1.3 nM |
| B11 | 0.8 | 1.2 | – | – | – | Inhibition of human TNF-induced L929 cell cytotoxicity EC50 (soluble human TNF-alpha [1]): 0.2 nM; Inhibition of cynomolgus TNF-induced L929 cell cytotoxicity EC50 [2]: < 0.1 nM; Inhibition of mTNF-alpha-induced HEK-NF-kB SEAP Reporter (EC50 = nM) [3]: 80 nM |
| B12 | 1.3 | 1.1 | 0.15 | 0.04 | 23.9 | – |
| B13 | 0.35 | 0.32 | 0.15 | 0.03 | 14.1 | – |
| B14 | 0.37 | 0.32 | 0.1 | 0.06 | 15.3 | – |
| B15 | 0.33 | 0.45 | 0.15 | 0.1 | 16 | EC50, HEK-293 NF-kB/SEAP reporter cells, human soluble TNF-alpha (soluble human TNF-alpha [6]): ~0.6 nM |
| B16 | 0.7 | 1.3 | – | – | – | Inhibition of human TNF-induced L929 cell cytotoxicity EC50 (soluble human TNF-alpha [1]): 1 nM; Inhibition of cynomolgus TNF-induced L929 cell cytotoxicity EC50 [2]: 0.8 nM; Inhibition of mTNF-alpha-induced HEK-NF-kB SEAP Reporter (EC50 = nM) [3]: 34 nM |
| B17 | 47 | 65 | 4 | 4 | 174 | – |
| B18 | 13 | 24 | 1.5 | 1 | 110 | – |
